Experimental data taken from publication PMC10397247.
Each block holds one binder with its values, some of them ahead of it.

What was measured:
Test in all cases: two-hybrid library CCNG1;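 note: natural log of median RNA to DNA barcode read ratio; higher means stronger binding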
[1] = biological target: T1, 4H1828-bA
T1 chain: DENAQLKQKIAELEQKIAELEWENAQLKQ

[2] = biological target: T2, 4H1845-bA
T2 chain: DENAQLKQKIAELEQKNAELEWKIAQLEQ

[3] = biological target: T3, 4H2442-bA
T3 chain: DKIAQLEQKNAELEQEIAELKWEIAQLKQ

[4] = biological target: T4, 4H2576-bA
T4 chain: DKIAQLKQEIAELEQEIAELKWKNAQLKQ

[5] = biological target: T5, 4H2618-bA
T5 chain: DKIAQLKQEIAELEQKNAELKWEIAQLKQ

[6] = biological target: T6, 4H2667-bA
T6 chain: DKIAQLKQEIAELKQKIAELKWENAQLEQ

[7] = biological target: T7, 4H2729-bA
T7 chain: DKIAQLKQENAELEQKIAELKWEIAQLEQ

[8] = biological target: T8, 4H3112-bA
T8 chain: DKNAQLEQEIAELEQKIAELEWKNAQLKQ

[9] = biological target: T9, 4H3185-bA
T9 chain: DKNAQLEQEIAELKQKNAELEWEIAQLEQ

[10] = biological target: T10, 4H331-bA
T10 chain: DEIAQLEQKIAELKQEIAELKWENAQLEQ

[11] = biological target: T11, 4H3354-bA
T11 chain: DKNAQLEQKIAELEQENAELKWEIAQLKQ

[12] = biological target: T12, 4H338-bA
T12 chain: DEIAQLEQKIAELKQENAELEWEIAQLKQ

[13] = biological target: T13, 4H3427-bA
T13 chain: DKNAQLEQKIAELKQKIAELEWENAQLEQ

[14] = biological target: T14, 4H348-bA
T14 chain: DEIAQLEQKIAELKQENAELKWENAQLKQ

[15] = biological target: T15, 4H3782-bA
T15 chain: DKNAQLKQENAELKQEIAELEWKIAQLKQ

[16] = biological target: T16, 4H3855-bA
T16 chain: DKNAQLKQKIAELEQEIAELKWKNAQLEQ

[17] = biological target: T17, 4H4001-bA
T17 chain: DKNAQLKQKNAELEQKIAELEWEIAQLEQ

[18] = biological target: T18, 4H454-bA
T18 chain: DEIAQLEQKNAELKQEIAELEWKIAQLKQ

[19] = biological target: T19, 4H492-bN
T19 chain: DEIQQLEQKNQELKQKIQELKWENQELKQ

[20] = biological target: T20, 4H568-bA
T20 chain: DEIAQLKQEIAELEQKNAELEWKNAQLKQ

[21] = biological target: T21, 4H607-bA
T21 chain: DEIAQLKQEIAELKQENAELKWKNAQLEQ

[22] = biological target: T22, 4H687-bA
T22 chain: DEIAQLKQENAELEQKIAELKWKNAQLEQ

[23] = biological target: T23, 4H717-bA
T23 chain: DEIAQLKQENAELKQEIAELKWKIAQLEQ

[24] = biological target: T24, 4H72-bA
T24 chain: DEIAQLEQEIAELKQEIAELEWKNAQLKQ

[25] = biological target: T25, 4H754-bA
T25 chain: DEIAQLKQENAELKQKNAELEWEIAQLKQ

[26] = biological target: T26, 4H797-bA
T26 chain: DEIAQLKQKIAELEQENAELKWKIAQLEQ

[27] = biological target: T27, 4H883-bA
T27 chain: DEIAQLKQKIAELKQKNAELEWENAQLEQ

[28] = biological target: T28, 4H908-bA
T28 chain: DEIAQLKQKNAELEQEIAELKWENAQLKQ

[29] = biological target: T29, 4H918-bA
T29 chain: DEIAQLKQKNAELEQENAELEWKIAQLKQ

[30] = biological target: T30, 4H953-bA
T30 chain: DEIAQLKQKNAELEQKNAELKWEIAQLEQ

[31] = biological target: T31, 4H967-bA
T31 chain: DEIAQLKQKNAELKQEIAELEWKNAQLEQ

[32] = biological target: T32, P9A-bH
T32 chain: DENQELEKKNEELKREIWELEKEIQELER

[33] = biological target: T33, 4H1446-bA
T33 chain: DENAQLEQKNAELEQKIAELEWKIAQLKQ

[34] = biological target: T34, 4H2610-bA
T34 chain: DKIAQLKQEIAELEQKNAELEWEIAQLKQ

[35] = biological target: T35, 4H2697-bA
T35 chain: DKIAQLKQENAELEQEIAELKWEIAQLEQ

[36] = biological target: T36, 4H3189-bA
T36 chain: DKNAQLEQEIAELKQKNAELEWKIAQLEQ

[37] = biological target: T37, 4H3606-bA
T37 chain: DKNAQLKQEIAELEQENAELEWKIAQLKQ

[38] = biological target: T38, 4H370-bA
T38 chain: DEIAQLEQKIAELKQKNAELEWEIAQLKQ

[39] = biological target: T39, 4H3843-bA
T39 chain: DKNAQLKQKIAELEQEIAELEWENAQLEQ

[40] = biological target: T40, 4H462-bA
T40 chain: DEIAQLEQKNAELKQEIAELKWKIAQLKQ

[41] = biological target: T41, P12A-bH
T41 chain: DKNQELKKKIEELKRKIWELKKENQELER

[42] = biological target: T42, P1A-bH
T42 chain: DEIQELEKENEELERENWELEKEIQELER

[43] = biological target: T43, P2A-bH
T43 chain: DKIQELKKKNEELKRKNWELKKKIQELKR

[44] = biological target: T44, P3A-bH
T44 chain: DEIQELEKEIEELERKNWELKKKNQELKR

[45] = biological target: T45, P4A-bH
T45 chain: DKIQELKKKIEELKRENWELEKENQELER

[46] = biological target: T46, P5A-bH
T46 chain: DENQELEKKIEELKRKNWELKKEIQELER

[47] = biological target: T47, P6A-bH
T47 chain: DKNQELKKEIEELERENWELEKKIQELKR

[48] = biological target: T48, P7A-bH
T48 chain: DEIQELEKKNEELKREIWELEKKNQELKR

[49] = biological target: T49, P8A-bH
T49 chain: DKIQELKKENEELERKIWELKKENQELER

[50] = biological target: T50, 4H2162-bH
T50 chain: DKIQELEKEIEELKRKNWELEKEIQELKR

[51] = biological target: T51, 4H2233-bH
T51 chain: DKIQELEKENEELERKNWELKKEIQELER

[52] = biological target: T52, 4H2253-bH
T52 chain: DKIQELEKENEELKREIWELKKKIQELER

[53] = biological target: T53, 4H235-bH
T53 chain: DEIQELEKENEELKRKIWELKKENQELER

[54] = biological target: T54, 4H2444-bH
T54 chain: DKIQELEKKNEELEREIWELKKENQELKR

[55] = biological target: T55, 4H2518-bH
T55 chain: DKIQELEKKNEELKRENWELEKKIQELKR

[56] = biological target: T56, 4H2585-bH
T56 chain: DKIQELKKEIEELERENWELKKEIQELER

[57] = biological target: T57, 4H264-bA
T57 chain: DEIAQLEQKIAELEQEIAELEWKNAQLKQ

[58] = biological target: T58, 4H264-bH
T58 chain: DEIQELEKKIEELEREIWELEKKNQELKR

[59] = biological target: T59, 4H2760-bH
T59 chain: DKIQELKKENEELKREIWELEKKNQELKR

[60] = biological target: T60, 4H2859-bH
T60 chain: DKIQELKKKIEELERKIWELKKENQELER

[61] = biological target: T61, 4H2931-bH
T61 chain: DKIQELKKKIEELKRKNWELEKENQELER

[62] = biological target: T62, 4H3041-bH
T62 chain: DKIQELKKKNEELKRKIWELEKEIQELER

[63] = biological target: T63, 4H3297-bH
T63 chain: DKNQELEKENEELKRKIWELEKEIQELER

[64] = biological target: T64, 4H3364-bH
T64 chain: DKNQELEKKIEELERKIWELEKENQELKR

[65] = biological target: T65, 4H3381-bH
T65 chain: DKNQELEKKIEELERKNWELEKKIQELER

[66] = biological target: T66, 4H349-bH
T66 chain: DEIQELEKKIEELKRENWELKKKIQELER

[67] = biological target: T67, 4H56-bH
T67 chain: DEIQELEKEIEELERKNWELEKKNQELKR

[68] = biological target: T68, 4H730-bH
T68 chain: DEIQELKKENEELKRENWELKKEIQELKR

[69] = biological target: T69, 4H796-bH
T69 chain: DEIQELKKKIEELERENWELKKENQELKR

[70] = biological target: T70, 4H932-bH
T70 chain: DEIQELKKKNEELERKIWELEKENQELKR

[71] = biological target: T71, 4H949-bH
T71 chain: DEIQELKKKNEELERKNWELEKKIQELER

interaction score [1]: 0.663 | interaction score [2]: -0.511 | interaction score [3]: 0.499 | interaction score [4]: 0.0647 | interaction score [5]: 0.132 | interaction score [6]: 0.0606 | interaction score [7]: -0.137 | interaction score [8]: 1.15 | interaction score [9]: -0.351 | interaction score [10]: -0.739 | interaction score [11]: 0.0682 | interaction score [12]: -1.89 | interaction score [13]: 0.974 | interaction score [14]: -0.144 | interaction score [15]: 0.85 | interaction score [16]: -0.259 | interaction score [17]: -0.562 | interaction score [18]: -1.06 | interaction score [19]: -2.71 | interaction score [20]: 0.727 | interaction score [21]: -0.523 | interaction score [22]: -0.0353 | interaction score [23]: -1.09 | interaction score [24]: -0.902 | interaction score [25]: -1.2 | interaction score [26]: -0.153 | interaction score [27]: -0.928 | interaction score [28]: -0.276 | interaction score [29]: -0.412 | interaction score [30]: -0.126 | interaction score [31]: -0.0426 | interaction score [32]: 0.475
Binder: DENAQLKQKIAELEQKIAELEWENAQLKQ [4H1828-bA]

interaction score [33]: 0.569 | interaction score [1]: -0.523 | interaction score [2]: -0.389 | interaction score [3]: -1.04 | interaction score [4]: 1.12 | interaction score [34]: -0.647 | interaction score [5]: 0.00602 | interaction score [6]: 0.0853 | interaction score [35]: -0.0949 | interaction score [7]: 1.08 | interaction score [8]: 0.505 | interaction score [9]: -0.0587 | interaction score [36]: -0.621 | interaction score [10]: 1.79 | interaction score [11]: -0.413 | interaction score [12]: -0.241 | interaction score [13]: 0.256 | interaction score [37]: 0.144 | interaction score [38]: 0.183 | interaction score [15]: 0.586 | interaction score [39]: 2.01 | interaction score [16]: 0.209 | interaction score [17]: 1.86 | interaction score [18]: -0.131 | interaction score [40]: -0.194 | interaction score [20]: -0.418 | interaction score [21]: -0.535 | interaction score [22]: -0.607 | interaction score [23]: -0.295 | interaction score [24]: 1.16 | interaction score [25]: -0.817 | interaction score [26]: -1.42 | interaction score [27]: 0.0122 | interaction score [28]: -0.405 | interaction score [29]: -0.0235 | interaction score [30]: -0.416 | interaction score [31]: -0.635
Binder: DENAQLEQKNAELEQKIAELEWKIAQLKQ [4H1446-bA]

interaction score [41]: -0.588 | interaction score [42]: 0.256 | interaction score [43]: -1.23 | interaction score [44]: 1.64 | interaction score [45]: -0.357 | interaction score [46]: -2.21 | interaction score [47]: 0.389 | interaction score [48]: -0.514 | interaction score [49]: 0.274 | interaction score [32]: 0.667
Binder: DKNQELKKKIEELKRKIWELKKENQELER [P12A-bH]

interaction score [50]: 0.161 | interaction score [51]: 0.284 | interaction score [52]: -0.234 | interaction score [53]: 0.377 | interaction score [54]: 0.28 | interaction score [55]: 1 | interaction score [56]: 0.942 | interaction score [57]: 0.1 | interaction score [58]: 0.0138 | interaction score [59]: 0.202 | interaction score [60]: 0.783 | interaction score [61]: 0.798 | interaction score [62]: 0.641 | interaction score [63]: 0.0958 | interaction score [64]: 0.498 | interaction score [65]: 0.0641 | interaction score [66]: 0.54 | interaction score [67]: 0.668 | interaction score [68]: -1.99 | interaction score [69]: -0.188 | interaction score [70]: -0.531 | interaction score [71]: -1.64
Binder: DKIQELEKEIEELKRKNWELEKEIQELKR [4H2162-bH]
